Test results published in publication PMC6509256.

Legend:
[1] = biological target: PcVps75ΔC (residues 1-223), crystallised as a dimer (Pneumocystis carinii); assay: crystal structure
[2] = biological target: PcVps75ΔCM-SeMet (residues 1-223, E56 and N127 mutated to methionine, selenomethionine-labeled), cry (Pneumocystis carinii); assay: crystal structure

Substance	stoichiometry N [1]	stoichiometry N [2]
PcVps75ΔC (residues 1-223), crystallised as a dimer (domain or fragment)	2	
PcVps75ΔCM-SeMet (residues 1-223, E56 and N127 mutated to methionine, selenomethionine-labeled), cry (domain or fragment)		4
